Eleven molecules from patent US10941182 (Amgen, dated 2021) can be followed below.

Starred links: 1 amine or outer side, 2 acyl side, 3 side chain; linkers in the order of their positions; H or OH if unused. Non-standard residues stand in square brackets, D forms with d. *: point of attachment. dBip = N[C@H](Cc1ccc(-c2ccccc2)cc1)C(=O)O; Oic = O=C(O)[C@@H]1C[C@@H]2CCCC[C@@H]2N1; Phe(4-Cl) = N[C@@H](Cc1ccc(Cl)cc1)C(=O)O; Phe(4-I) = N[C@@H](Cc1ccc(I)cc1)C(=O)O; γGlu = O=C(O)[C@H](CCC(=O)[*:2])N[*:1]; C12 diacid = O=C(O)CCCCCCCCCCC(=O)*; NMeR = CN[C@@H](CCCNC(=N)N)C(=O)O; hArg = N=C(N)NCCCC[C@H](N)C(=O)O; Cha = N[C@@H](CC1CCCCC1)C(=O)O; NMeL = CN[C@@H](CC(C)C)C(=O)O; Nle = CCCC[C@H](N)C(=O)O; AEEA = NCCOCCOCC(=O)O; Aib = CC(C)(N)C(=O)O; Mpa = O=C(O)CCS

B1: SEQ ID NO: 114 (peptide)
peptide: QRPRLSHKGPXPF
modifications: {H2}[MerPr](10K mPEG acetamide)QR[aMePro][hArg][aMeLeu]SHKGP[Nle]P[4-Cl-F]{COOH}
B2: SEQ ID NO: 561 (peptide)
peptide: XXXQRPRLSHKGPXPF
modifications: {hexanoyl}[AC4Abu][Aeea][Aeea]Q[NMehArg]P[NMeArg][aMeLeu]SHKGP[Nle]P[4-Cl-F]{COOH}
B3: SEQ ID NO: 116 (peptide)
peptide: QRPRLSHKGPXPF
modifications: {H2}[MerPr](10K mPEG acetamide)Q[NMehArg]P[NMeArg][aMeLeu]SHKGP[Nle]P[4-Cl-F]{COOH}
B4: SEQ ID NO: 349 (peptide)
peptide: {C12 diacid}-[γGlu][AEEA][AEEA]Q[hArg]P[dR][NMeL]SHKG[Oic][Phe(4-I)]P[dBip]-OH
SMILES: CC(C)C[C@@H](C(=O)N[C@@H](CO)C(=O)N[C@@H](Cc1c[nH]cn1)C(=O)N[C@@H](CCCCN)C(=O)NCC(=O)N1[C@H](C(=O)N[C@@H](Cc2ccc(I)cc2)C(=O)N2CCC[C@H]2C(=O)N[C@H](Cc2ccc(-c3ccccc3)cc2)C(=O)O)C[C@@H]2CCCC[C@@H]21)N(C)C(=O)[C@@H](CCCNC(=N)N)NC(=O)[C@@H]1CCCN1C(=O)[C@H](CCCCNC(=N)N)NC(=O)[C@H](CCC(N)=O)NC(=O)COCCOCCNC(=O)COCCOCCNC(=O)CC[C@H](NC(=O)CCCCCCCCCCC(=O)O)C(=O)O
B5: SEQ ID NO: 94 (peptide)
peptide: SDFYKRLINKAKXXRRQRPRLSHKGXFPX
modifications: {Acetyl-NH}SDFYKRLINKAK[Aeea][Aeea][hArg]rQ[hArg]Pr[NMeLeu]SHKG[Oic][pI-Phe]P[D-Bip]{COOH}

The target of the first test is T1, human APJ receptor (human, UniProt P35414 1-380).
T1 sequence (looked up): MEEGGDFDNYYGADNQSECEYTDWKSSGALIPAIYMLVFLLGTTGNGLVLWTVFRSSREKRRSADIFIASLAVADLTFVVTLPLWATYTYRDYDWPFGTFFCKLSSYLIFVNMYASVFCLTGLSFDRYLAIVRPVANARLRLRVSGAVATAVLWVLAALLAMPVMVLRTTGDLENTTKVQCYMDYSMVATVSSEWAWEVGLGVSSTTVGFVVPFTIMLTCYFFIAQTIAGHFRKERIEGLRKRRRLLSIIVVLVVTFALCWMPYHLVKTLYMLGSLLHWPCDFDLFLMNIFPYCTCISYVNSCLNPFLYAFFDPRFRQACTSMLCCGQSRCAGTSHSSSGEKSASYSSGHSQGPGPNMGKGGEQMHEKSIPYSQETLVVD
In words: cell-based or functional assay.
On to QRPRLSHKGPXPF ({H2}[MerPr](10K mPEG acetamide)Q[hArg]P[NMehArg]LSHKGP[Nle]P[4-Cl-F]{COOH}) [SEQ ID NO: 113], for which the “EC50 Human APJ Receptor” value was 12.1 nM.

Turning to QRPRLSHKGPXPF ({H2}[MerPr](10K mPEG acetamide)QrP[hArg][aMeLeu]SHKGP[Nle]P[4-Cl-F]{COOH}) [SEQ ID NO: 119], the “EC50 Human APJ Receptor” value came to 25.6 nM.

B1: the “EC50 Human APJ Receptor” value stood at 0.848 nM.

As to B2, the “EC50 Human APJ Receptor” value was 1.21 nM.

For the molecule H-KFRRQRPRLSHKGPMP-OH [SEQ ID NO: 12], the “EC50 Human APJ Receptor” value came to 1.42 nM.

With QRPRLSHKGPXPF ({H2}[MerPr](10K mPEG acetamide)QRP[hArg][aMeLeu]SHKGP[Nle]P[4-Cl-F]{COOH}) [SEQ ID NO: 117], the “EC50 Human APJ Receptor” value stood at 19.7 nM.

In the case of B3, the “EC50 Human APJ Receptor” value was 9.71 nM.

Consider {10K mPEG acetamide}-[Mpa]QRP[NMeR][Cha]SHKG[Oic][Nle][Aib][Phe(4-Cl)]-OH [SEQ ID NO: 120], for which the “EC50 Human APJ Receptor” value came out at 63.2 nM.

As to QRPRLSHKGPXPF ({H2}[MerPr](10K mPEG acetamide)QRP[NMeArg]LSHKGP[Nle]P[4-Cl-F]{COOH}) [SEQ ID NO: 115], the “EC50 Human APJ Receptor” value was 1.66 nM.

In the case of B4, the “EC50 Human APJ Receptor” value was determined as 64 nM.

B5: the “EC50 Human APJ Receptor” value was 1.34 nM.

A further test deals with T2, rat APJ receptor (rat, UniProt Q9JHG3 1-377).
T2 sequence (looked up): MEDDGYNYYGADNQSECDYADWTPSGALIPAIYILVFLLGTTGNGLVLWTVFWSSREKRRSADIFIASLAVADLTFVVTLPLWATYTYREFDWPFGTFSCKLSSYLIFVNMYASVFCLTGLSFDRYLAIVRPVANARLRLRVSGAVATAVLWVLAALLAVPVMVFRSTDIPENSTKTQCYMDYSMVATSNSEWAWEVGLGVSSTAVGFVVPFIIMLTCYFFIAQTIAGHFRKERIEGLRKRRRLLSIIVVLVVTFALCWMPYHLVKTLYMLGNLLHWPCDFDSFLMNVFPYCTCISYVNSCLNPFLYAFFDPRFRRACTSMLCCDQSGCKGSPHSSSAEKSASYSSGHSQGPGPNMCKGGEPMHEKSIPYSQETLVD
The experiment in a line: cell-based or functional assay.
Consider QRPRLSHKGPXPF ({H2}[MerPr](10K mPEG acetamide)Q[hArg]P[NMehArg]LSHKGP[Nle]P[4-Cl-F]{COOH}) [SEQ ID NO: 113], for which the “EC50 Rat APJ Receptor” value amounted to 49.3 nM.

Take QRPRLSHKGPXPF ({H2}[MerPr](10K mPEG acetamide)QrP[hArg][aMeLeu]SHKGP[Nle]P[4-Cl-F]{COOH}) [SEQ ID NO: 119]: the “EC50 Rat APJ Receptor” value worked out at 141 nM.

As to B1, the “EC50 Rat APJ Receptor” value stood at 3.46 nM.

Turning to B2, the “EC50 Rat APJ Receptor” value was 5.94 nM.

Consider H-KFRRQRPRLSHKGPMP-OH [SEQ ID NO: 12], for which the “EC50 Rat APJ Receptor” value was found to be 5.81 nM.

QRPRLSHKGPXPF ({H2}[MerPr](10K mPEG acetamide)QRP[hArg][aMeLeu]SHKGP[Nle]P[4-Cl-F]{COOH}) [SEQ ID NO: 117]: the “EC50 Rat APJ Receptor” value worked out at 117 nM.

For B3, the “EC50 Rat APJ Receptor” value stood at 40.8 nM.

With {10K mPEG acetamide}-[Mpa]QRP[NMeR][Cha]SHKG[Oic][Nle][Aib][Phe(4-Cl)]-OH [SEQ ID NO: 120], the “EC50 Rat APJ Receptor” value was found to be 258 nM.

As for QRPRLSHKGPXPF ({H2}[MerPr](10K mPEG acetamide)QRP[NMeArg]LSHKGP[Nle]P[4-Cl-F]{COOH}) [SEQ ID NO: 115], the “EC50 Rat APJ Receptor” value was determined as 6.49 nM.

B4: the “EC50 Rat APJ Receptor” value is 47.8 nM.

As for B5, the “EC50 Rat APJ Receptor” value is 1.33 nM.
